“And” between values parts separate entries of the source, which are not always exact repeats. Equal values may be shown once. Positions of bridges follow the written chain, without caps; N, C: chain ends. No end group written: not given here.
Columns and labels:
rDIII = target: T1, rDIII (West Nile virus, UniProt P06935); assay: ELISA of the binding of 7-mer cyclic and 12-mer linear peptides to rDIII; details: peptides coated through C-terminus in CovaLink NH plates; 1 µg rDIII; HisProbe-HRP; negative control subtracted
T1 construct: rDIII – recombinant domain III; made in house; host or cells: E. coli M15
T1 sequence (P06935 584-692 limits assumed): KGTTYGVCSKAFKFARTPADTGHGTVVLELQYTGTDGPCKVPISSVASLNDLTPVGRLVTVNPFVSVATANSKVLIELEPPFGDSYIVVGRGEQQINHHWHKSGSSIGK
Protocol: The 7-mer cyclic and 12-mer linear peptides were covalently bound in CovaLink NH microwell plates and their binding to rDIII was corroborated by ELISA. Details are presented in Supplementary Method S11.
Confirmation of the binding of 7-mer cyclic and 12-mer linear peptides to rDIII by ELISA. The 7-mer cyclic and 12-mer linear peptides were covalently bound in CovaLink NH microwell plates overnight at 4°C as per the manufacturer´s instructions (Thermo Fischer Scientific).
Unbound peptides were washed with PBS (pH 7.4) and non-specific sites were blocked with 0.5% BSA in PBS for 1 h at room temperature. After blocking, wells were washed 2 times for 2 min with CovaBuffer (2 M NaCl, 40 mM MgSO4.7H2O, 0.05% Tween 20, PBS; pH 7.2). One microgram of rDIII diluted in 0.05% PBST was added in separate wells and incubated for 1 h at room temperature with constant shaking. Wells were washed 3 times for 2 min with CovaBuffer and interaction was detected with HisProbe-HRP conjugate (1:5,000 dilution in 0.1% BSA in PBST; Thermo Fisher Scientific) for 30 min at room temperature with constant shaking. After 6 washings, the chromogenic reaction was developed using a 1-Step Ultra TMB-ELISA substrate (Thermo Fisher Scientific). After 25 min, the reaction was stopped with 2 M H2SO4 and absorbance was measured at 450 nm. For negative controls, either rDIII or peptides were excluded from the protocol. The assay was performed in triplicates. […]

[1] = target: T2, interaction between rDIII and ~ 15 kDa receptor of hBMECs (West Nile virus, UniProt P06935); assay: Blocking of interaction between rDIII and proteins of hBMECs by peptides (Western blot); format: binding, West Nile virus / human; details: 2.5 µg (0.19 nM) rDIII pre-incubated with tenfold molar excess (1.9 nM) of peptide
T2 construct: rDIII – recombinant domain III; made in house; host or cells: E. coli M15
T2 sequence (P06935 584-692 limits assumed): T1 sequence (P06935 584-692 limits assumed)
Protocol: (§1) First, concentration-dependent ELISA and Western blot were performed to get the minimum concentration of rDIII required to show its interaction with hBMECs proteins. Details are presented in Supplementary Method S12 and Supplementary Method S13. Subsequently, the ability of 7-mer and 12-mer peptides to block the interaction between rDIII and proteins of hBMECs was tested. A tenfold molar excess of peptides was incubated with rDIII for 1 h at room temperature. Such pre-incubated rDIII was subsequently used in the assays. Details of both methods are described in Supplementary Method S12 and Supplementary Method S13. […]
Blocking of interaction between rDIII and proteins of hBMECs by peptides (Western blot).
Two hundred micrograms of proteins extracted from hBMECs were separated on 2-well PAGE […]
gel (12% polyacrylamide gel) and transferred on 0.45 μm nitrocellulose membrane (Amersham Protran; GE Healthcare) for 1 h at 30 V. Details of LDS-PAGE are described in Supplementary Methods S7. The membrane was cut horizontally to obtain proteins of molecular weight between ~10 kDa to ~25 kDa. Subsequently, this membrane was sliced vertically to obtain 0.3 cm strips, which were then used in Western blot (Supplementary Fig.
The NC strips with transblotted hBMECs proteins were first incubated with rDIII at various concentrations to find out the minimal concentration of rDIII required to detect the interaction with hBMECs proteins. Non-specific binding sites were blocked with 1% BSA in 0.05% TBST (pH 7.2) for 1 h at room temperature and constant shaking followed by a washing step for 5 min with 0.05% TBST. The NC strips were incubated with rDIII at different concentrations (5 µg, 2.5 µg, 2 µg, 1 µg, 500 ng) diluted in 1 mL of 0.05% TBST for 3 h at room temperature and constant shaking. After 3 washings with 0.05% TBST, strips were incubated with HisProbe-HRP conjugate (1:5,000 dilution in 0.1% BSA in 0.05% TBST; Thermo Fisher Scientific) for 30 min at room temperature. Six washings, each of 5 min were performed before incubating the strips in SuperSignal chemiluminescence substrate (Thermo Fisher Scientific). The signal was captured on the C-DiGit Blot Scanner (Odyssey CLx, LI-COR Biosciences). For negative control, rDIII was excluded from the above-mentioned protocol.
To block the interaction, the NC strips were blocked as described above.
Simultaneously, 2.5 µg (0.19 nM) of rDIII were pre-incubated with 2.75 µg of each peptide (10-fold molar excess; 1.9 nM) in TBS for 1 h at room temperature. Further on, strips were incubated with pre-incubated rDIII for 3 h at room temperature with constant shaking. After 3 washings with 0.05% TBST, strips were incubated with HisProbe-HRP conjugate as described above. […]

[2] = target: T3, interaction between rDIII and proteins of hBMECs (West Nile virus, UniProt P06935); assay: Blocking of interaction between rDIII and proteins of hBMECs by peptides (ELISA); format: binding, West Nile virus / human; details: rDIII 0.15 nM pre-incubated with tenfold molar excess (1.5 nM) of peptide; ELISA
T3 construct: rDIII – recombinant domain III; made in house; host or cells: E. coli M15
T3 sequence (P06935 584-692 limits assumed): T1 sequence (P06935 584-692 limits assumed)
Protocol: as §1
Blocking of interaction between rDIII and proteins of hBMECs by peptides (ELISA). First, different concentrations of rDIII were tested to get the minimum concentration of rDIII required to show the interaction with hBMECs proteins. Protein extract of hBMECs (4 μg/well) diluted in coating buffer (0.5 M Na2CO3, 0.5 M NaHCO3; pH 9.5) was incubated in the microtiter wells for overnight at 4°C. Unbound hBMECs proteins were washed with PBS (pH 7.3) containing 0.05% Tween 20 (0.05% PBST) and non-specific binding sites were blocked with 0.5% BSA in 0.05% PBST. rDIII at different concentrations (5 µg, 2.5 µg, 2 µg, 1 µg, 500 […]
ng, 250 ng, 125 ng, and 62.5 ng) diluted in 0.05% PBST was added into wells and incubated for 3 h at room temperature and constant shaking. Wells were washed 3 times with 0.05% PBST and incubated with HisProbe-HRP conjugate (1:5,000 dilution in 0.1% BSA in 0.05% PBST; Thermo Fisher Scientific) for 30 min at room temperature and constant shaking. […] The reaction was stopped after 25 min with 2 M H2SO4 and the absorbance was measured at 450 nm. […]
After blocking, the wells were washed 3 times with 0.05% PBST, pre-incubated rDIII was added and incubated for 3 h at room temperature with constant shaking. […] The reaction was stopped after 25 min with 2 M H2SO4 and the absorbance was measured at 450 nm. hBMECs proteins incubated with untreated rDIII were used as a positive control. […]

[3] = target: T4, recombinant domain III (DIII) of the envelope (E) glycoprotein of West Nile virus (West Nile virus); assay: cell-based or functional assay
T4 chain: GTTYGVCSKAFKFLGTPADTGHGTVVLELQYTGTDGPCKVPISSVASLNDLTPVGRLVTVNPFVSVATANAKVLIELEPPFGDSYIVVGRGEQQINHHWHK

[4] = target: T4, recombinant domain III (DIII) of the …; assay: ELISA; blocking ELISA: rDIII (2 µg, printed as 0.15 nM) pre-incubated 1 h at room temperature with a tenfold molar excess (1.5 nM) of peptide, then added to coated hBMEC proteins; negative control (no rDIII) subtracted; details: both partners purified

## CDPRHSKFC (ACDPRHSKFCGGGS; disulfide 2-10 (inferred)) [CP15]
rDIII
  A450, ELISA of peptide binding to rDIII: > 1.5
[1]
  inhibition of the interaction between rDIII and ~ 15 kDa hBMECs receptor (Western blot): did not show clear inhibition of the interaction

## CMQTQRAHC (ACMQTQRAHCGGGS; disulfide 2-10 (inferred)) [CP6]
rDIII
  A450, ELISA of peptide binding to rDIII: > 1.5
[1]
  inhibition of the interaction between rDIII and ~ 15 kDa hBMECs receptor (Western blot): did not show clear inhibition of the interaction

## CTNANHYFC (ACTNANHYFCGGGS; disulfide 2-10 (inferred)) [CP7]
rDIII
  A450, ELISA of peptide binding to rDIII: > 1.5
[2]
  inhibition of the interaction between rDIII and hBMECs proteins: 37%

## HYSWSWIAYSPG (HYSWSWIAYSPGGGGS; left off: His6, N-terminal, cleaved | 28 aa tag, N-terminal, cleaved) [LP19]
rDIII
  A450, ELISA of peptide binding to rDIII: 0.082

## SGVYKVAYDWQH (SGVYKVAYDWQHGGGS; left off: His6, N-terminal, cleaved | 28 aa tag, N-terminal, cleaved) [LP3]
rDIII
  A450, ELISA of peptide binding to rDIII: 2.564 and > 1.5
[1]
  inhibition of the interaction between rDIII and ~ 15 kDa hBMECs receptor (Western blot): did not show clear inhibition of the interaction

B1: 7-mer cyclic peptide CP16 (ACX7CGGGS form of CLAQSHPLC) (peptide)
peptide: ACLAQSHPLCGGGS
modifications: disulfide 2-10 (inferred)
notes: additional alanine at the N-terminus (ACX7CGGGS); peptide of phage clone CC16; C-terminal linker; also called C16; source: E. coli SHuffle T5, purified; N-terminal tag cleaved with enterokinase and removed on nickel beads; not shown: His6, N-terminal, cleaved; 28 aa tag, N-terminal, cleaved
[3]
  neutralisation of infection of cultured cells by virus like particles (C, M and E proteins, luciferase reporter), EC50; the peptide blocks DIII binding to endothelial cells: 14.8 nM
[4]
  A450 of rDIII on proteins of hBMECs after pre-incubation with the peptide: 0.427
  percent inhibition of rDIII binding to proteins of hBMECs: 60%

B2: 12-mer linear peptide LP3 (X12GGGS form of SGVYKVAYDWQH) (peptide)
peptide: SGVYKVAYDWQHGGGS
notes: peptide of phage clone LC3; C-terminal linker; source: E. coli SHuffle T5, purified; N-terminal tag cleaved with enterokinase and removed on nickel beads; not shown: His6, N-terminal, cleaved; 28 aa tag, N-terminal, cleaved
[4]
  A450 of rDIII on proteins of hBMECs after pre-incubation with the peptide: 0.647
  percent inhibition of rDIII binding to proteins of hBMECs: 39%

B3: 7-mer cyclic peptide CP15 (ACX7CGGGS form of CDPRHSKFC) (peptide)
peptide: ACDPRHSKFCGGGS
modifications: disulfide 2-10 (inferred)
notes: additional alanine at the N-terminus (ACX7CGGGS); peptide of phage clone CC15; C-terminal linker; source: E. coli SHuffle T5, purified; N-terminal tag cleaved with enterokinase and removed on nickel beads; not shown: His6, N-terminal, cleaved; 28 aa tag, N-terminal, cleaved
[4]
  A450 of rDIII on proteins of hBMECs after pre-incubation with the peptide: 0.423
  percent inhibition of rDIII binding to proteins of hBMECs: 60%

B4: 7-mer cyclic peptide CP2 (ACX7CGGGS form of CTKTDVHFC) (peptide)
peptide: ACTKTDVHFCGGGS
modifications: disulfide 2-10 (inferred)
notes: additional alanine at the N-terminus (ACX7CGGGS); peptide of phage clone CC2; C-terminal linker; source: E. coli SHuffle T5, purified; N-terminal tag cleaved with enterokinase and removed on nickel beads; not shown: His6, N-terminal, cleaved; 28 aa tag, N-terminal, cleaved
[3]
  neutralisation of infection of cultured cells by virus like particles (C, M and E proteins, luciferase reporter), EC50; the peptide blocks DIII binding to endothelial cells: 2.43 nM
[4]
  A450 of rDIII on proteins of hBMECs after pre-incubation with the peptide: 0.117
  percent inhibition of rDIII binding to proteins of hBMECs: 89%

B5: 7-mer cyclic peptide CP6 (ACX7CGGGS form of CMQTQRAHC) (peptide)
peptide: ACMQTQRAHCGGGS
modifications: disulfide 2-10 (inferred)
notes: additional alanine at the N-terminus (ACX7CGGGS); peptide of phage clone CC6; C-terminal linker; source: E. coli SHuffle T5, purified; N-terminal tag cleaved with enterokinase and removed on nickel beads; not shown: His6, N-terminal, cleaved; 28 aa tag, N-terminal, cleaved
[4]
  A450 of rDIII on proteins of hBMECs after pre-incubation with the peptide: 0.56
  percent inhibition of rDIII binding to proteins of hBMECs: 47%

B6: 7-mer cyclic peptide CP4 (ACX7CGGGS form of CIHSSTRAC) (peptide)
peptide: ACIHSSTRACGGGS
modifications: disulfide 2-10 (inferred)
notes: additional alanine at the N-terminus (ACX7CGGGS); peptide of phage clone CC4; C-terminal linker; source: E. coli SHuffle T5, purified; N-terminal tag cleaved with enterokinase and removed on nickel beads; not shown: His6, N-terminal, cleaved; 28 aa tag, N-terminal, cleaved
[3]
  neutralisation of infection of cultured cells by virus like particles (C, M and E proteins, luciferase reporter), EC50; the peptide blocks DIII binding to endothelial cells: 17 nM
[4]
  A450 of rDIII on proteins of hBMECs after pre-incubation with the peptide: 0.346
  percent inhibition of rDIII binding to proteins of hBMECs: 67%

B7: 7-mer cyclic peptide CP12 (ACX7CGGGS form of CTYENHRTC) (peptide)
peptide: ACTYENHRTCGGGS
modifications: disulfide 2-10 (inferred)
notes: additional alanine at the N-terminus (ACX7CGGGS); peptide of phage clone CC12; C-terminal linker; source: E. coli SHuffle T5, purified; N-terminal tag cleaved with enterokinase and removed on nickel beads; not shown: His6, N-terminal, cleaved; 28 aa tag, N-terminal, cleaved
[3]
  neutralisation of infection of cultured cells by virus like particles (C, M and E proteins, luciferase reporter), EC50; the peptide blocks DIII binding to endothelial cells: 10.4 nM
[4]
  A450 of rDIII on proteins of hBMECs after pre-incubation with the peptide: 0.418
  percent inhibition of rDIII binding to proteins of hBMECs: 61%

Source: publication PMC8505397, “Development of peptides targeting receptor binding site of the envelope glycoprotein to contain the West Nile virus infection” (Scientific Reports, 2021)
